Biological target: monkey CD47 on LLC-MK2 cells (rhesus monkey) (UniProt H9ERV1)
Test: flow cytometry, LLC-MK2 cells

EC50 (read off the curve): 60 pM
Substance: Hu5F9-G4 (antibody)

— patent US20250288643A1
